Experimental data reported in the supplement of paper PMC10567573.

B1: PDZK1 (parent)
chain: RETASLKLLPHQPRIVEMKKGSNG

Variants of: B1
Test: protein stability index of a GFP-peptide fusion (GPS, HEK-293T) (PSI 1-6); higher = more stable
Details: c terminus: a fixed tail appended
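Note: lentivirally expressed fusions sorted by FACS into six bins by GFP to DsRed ratio, PSI derived from sequencing read proportions per bin multiplied by bin number.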

Protein stability index, by site and new letter:
Q12: I 2.85 | T 3.26 | A 3.54 | S 4.05 | R 3.65 | F 2.97 | K 3.66 | N 3.84 | E 2.88 | L 3.27 | H 3.97 | G 3.62 | P 4.03 | V 3.09 | C 3.27 | D 3.3 | W 3.2 | M 3.38
I15: E 5.02 | D 4.66 | N 4.99 | M 3.89 | F 3.44 | T 4.49 | L 4.16 | P 4.39 | A 4.78 | Q 4.72 | R 4.51 | W 2.79 | C 4.3 | G 5.16 | K 4.75 | V 3.51 | Y 4.01 | S 4.69
H11: T 3.73 | Y 3.5 | W 3.29 | Q 3.23 | R 3.35 | P 3.25 | N 3.38 | V 2.59 | S 3.52
K20: N 4.28 | I 3.41 | Y 3.62 | G 4.14 | F 3 | E 4.87 | W 2.48 | T 3.51 | Q 4.06 | C 3.65 | V 3.7 | L 3.61 | H 4.4 | A 3.46 | M 3.57 | P 3.99
N23: K 4.18 | L 3.11 | Q 4.32 | G 3.62 | M 3.24 | W 3.12 | Y 3.3 | S 3.14 | R 4.48 | D 4.24 | C 3.25 | A 3.62 | T 3.52 | I 3.24 | E 4.45 | P 4.22 | V 3.72
R14: E 4.07 | C 3.63 | T 4.22 | H 3.7 | N 4.13 | W 3.3 | A 4.25 | D 4.61 | Y 3.34 | M 2.93 | G 4.05 | K 3.38 | I 3.86 | S 3.87
E17: F 2.81 | C 3.17 | R 4.02 | V 3.21 | Q 2.92 | W 2.7 | Y 2.51 | K 3.82 | I 2.42 | L 2.66 | P 2.97 | D 4.08 | S 3.67 | H 3.67 | N 4.28 | G 3.48 | T 3.86
P13: N 3.67 | E 4.4 | G 4.14 | M 3.88 | W 3.25 | Y 3.4 | C 2.35 | F 3.63 | D 4.22 | K 4.07 | V 4.14 | R 3.77 | S 3.92 | T 3.99 | Q 4.81 | H 3.73 | A 4.09 | I 3.29 | L 4.35
M18: R 4.93 | W 3.53 | C 4.33 | A 4.51 | I 4.21 | L 4.15 | S 4.79 | Q 4.58 | Y 3.91 | F 4 | V 3.86 | T 4.85 | E 5.25 | K 4.56 | D 5.3 | P 4.58 | H 4.44
S22: M 3.85 | F 2.47 | Y 2.61 | P 3.33 | N 4.09 | Q 3.88 | C 3.25 | I 3.38 | T 3.51 | G 4.28 | K 4.03 | V 4 | D 4.55 | L 3.03 | E 4.54
K19: E 3.94 | R 2.63 | L 2.79 | C 2.29 | I 2.77 | N 3.28 | S 3.49
